Experimental data from patent US20260116991A1 (HAINAN SIMCERE ZAIMING PHARMACEUTICAL, published 2026).
Where a chain is given by its changes, count along the chain named.

B1: F1.42.8 human-murine chimeric antibody (antibody, human IgG1, kappa, V domains shown)
VH: HVQLQQPGAELVKPGASVKLSCKASGYTFTSYWMHWVRQRPGQGLEWIEMIHPNSGSTNYNEKFKSKATLTVDKSSSTAYMQLSSLTSEDSAVYYCARGNYNSSLYAMDYWGQGTSVTVSS
VL: DIQMTQTTSSLSASLGDRVTISCSASQGISNYLNWYQQKPDGTVKLLIYYASNLHSGVPSRFSGSGSGTAYSLTISNLEPEDIATYYCQQYSILPYTFGGGTKLEIKR
B2: F1.2.14 human-murine chimeric antibody (antibody, human IgG1, kappa, V domains shown)
VH: RVQLQQSGAELVKPGASVRMSCKASGYTFTAYSIEWMKQNLGKSLEWIGNFRPYNDDTKYNENFKGRATLTVEKSSATVYLELSRLTSDDSAVYYCARSGPTDYFDYWGQGTTLIVSS
VL: DIQMTQSPASLSASVGETVTITCRASDNIYSYLAWYQQKQGQSPQLLVYNAKTLAEGVPSRFSGSGSVTQFSLKIISLQPEDFGTYYCQHHFGTPRTFGGGTKLEIKR
B3: F1.57.21 human-murine chimeric antibody (antibody, human IgG1, kappa, V domains shown)
VH: QVQLQQSGAELARPGASVKLSCKASGYTFTSYGISWVKQITGQGLEWIGEIYPRSESTYYNEKFKGKATLTADKSSSTAYMELRSLTSEDSAVYFCARDYGNIYSFAYWGQGTLVTVSA
VL: B2 VL with A25T, D27E, Q42K, V68G, I76N, T85S, F92Y, R96L, G100A, I106L
B4: F1.41.17 human-murine chimeric antibody (antibody, human IgG1, kappa, V domains shown)
VH: EVQLVESGGDSVKPGGSLKLSCAASGFTFSSYGMSWVRQTPDKRLEWVATINSGGSYTYYQDSVKGRFTISRDNAKNTLYLQMSSLKSEDTAIYYCVRHHYGSSYDYFDYWGQGTTLTVSS
VL: DIVMTQAAPSVPVMPGESVSISCRSSKSLLHSNGNTHLYWFLQRPGQSPQLLIYRMSNLASGVPDRFSGSGSGTAFTLRISRVEAEDVGVYYCMQHLEYPLTFGAGTKLELKR
B5: F1.73.9 human-murine chimeric antibody (antibody, human IgG1, kappa, V domains shown)
VH: QVQLKQSGAELVRPGASVKLSCKASGYTFTDYYINWVKQRPGQGLEWIARIYPGSGNTYYNEKFKGKATLTAEKSSSTAYMQFSSLTSEDSAVYFCACSTYYTMDYWGQGTSVTVSS
VL: QIVLTQSPAIMSASLGERVTMTCTASSGVSSSYLHWYQQKPGSSPKLWIYTTSNLASGVPARFSGSGSGTSYSLTISSMEAEDAATYYCHQYHRSPYTFGGGTKLEIKR
B6: F1.21.8 human-murine chimeric antibody (antibody, human IgG1, kappa, V domains shown)
VH: EVQLQQSGPELVKPGASVKISCKTSGFLFTGHYMHWVKSSHGNILDWIGYIYPYNAISFYNQKFKGKATLTVDKSSNTAYMELRSLTSEDSAVYYCARGDYGNYVTAYWGQGTLVTVSA
VL: DVLMTQTPLSLPVSLGDQASISCRSSQSIVHSSGNTYLEWYLQKPGQSPKLLIYKVSNRFSGVPDRFSGSGSGTDFTLKISRVEAEDLGVYYCFQGSHLPWTFGGGTKLDIKR
B7: hAb006LH2L1b (antibody, human IgG1, V domains shown)
VH: EVQLVQSGAEVKKPGSSVKVSCKASGYTFTDYEIHWVRQAPGQGLEWMGAIDPKTGNTAYNQKFMGRVTITADKSTSTAYMELSSLRSEDTAVYYCTRYFSFAYWGQGTLVTVSS
VL: DIVMTQTPLSLPVTPGEPASISCRSSQTFVHSNANTYLQWYLQKPGQSPQLLIYKVSNRFSGVPDRFSGSGSGTDFTLKISRVEAEDVGVYYCFQGSHVPYTFGQGTKLEIK
notes: Humanized F3.38.7
B8: hAb007LH2L1b (antibody, human IgG1, V domains shown)
VH: B7 VH with I34M, A50T, K54E, M65K, Y99P, F100Y, F102L, A103T
VL: B7 VL with T28S, A34R, N35D
notes: Humanized F3.81.19
B9: hAb006LH3L1b (antibody, human IgG1, V domains shown)
VH: B7 VH with I70L
VL: B7 VL
notes: Humanized F3.38.7
B10: hAb007LH1L1c (antibody, human IgG1, V domains shown)
VH: B7 VH with T30S, I34M, A50T, K54E, M65K, Y99P, F100Y, F102L, A103T
VL: B7 VL with T28S, N35D
notes: Humanized F3.81.19
B11: hAb007LH1L1 (antibody, human IgG1, V domains shown)
VH: B7 VH with T30S, I34M, A50T, K54E, M65K, Y99P, F100Y, F102L, A103T
VL: B7 VL with T28S, A34G, N35D
notes: Humanized F3.81.19
B12: hAb007LH1L1b (antibody, human IgG1, V domains shown)
VH: B7 VH with T30S, I34M, A50T, K54E, M65K, Y99P, F100Y, F102L, A103T
VL: B7 VL with T28S, A34R, N35D
notes: Humanized F3.81.19
B13: hAb006LH3L1c (antibody, human IgG1, V domains shown)
VH: B7 VH with I70L
VL: B7 VL with A34R
notes: Humanized F3.38.7
B14: F1.78.24 human-murine chimeric antibody (antibody, human IgG1, kappa, V domains shown)
VH: QVQLQQSGAELVKPGASVKMSCKASGYTFTTYPIEWMKQNHGKSLEWIGNFHPYNDDTNYNVKFKGKATLTVEKSSSTVYLELSRLTSDDSALYYCARRREYYGSFDVWGTGTTVTVSS
VL: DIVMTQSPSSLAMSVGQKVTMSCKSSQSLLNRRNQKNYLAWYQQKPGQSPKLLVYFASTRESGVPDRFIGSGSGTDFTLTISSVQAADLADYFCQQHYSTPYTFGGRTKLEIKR

Assays:
[1] = biological target: T1, human GPC3 on CHO-K1-human GPC3 cells (clone CHOK1-hGPC3.2B5) (human, UniProt P51654 25-554); assay: FACS on CHOK1-hGPC3.2B5 cells;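 note: flow cytometry binding of chimeric antibodies to the cells, read out as mean fluorescence intensity, with the half-maximal concentration derived by curve fitting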
T1 construct: whole, on cells; Stably transfected CHO-K1 clone 2B5
Experimental: (§1) The desired cells were expanded to a logarithmic growth phase in a T-75 cell culture flask, the medium was removed by pipetting, and the cells were washed twice with a PBS buffer, and digested with trypsin. Then a complete medium was added to stop the digestion, and the cells were blown into a single cell suspension. After counting, the cells were centrifuged, and the cell pellet was resuspended with an FACS buffer (PBS+2% fetal bovine serum) to 2×10⁶ cells/mL. The cell resuspension solution was added to a 96-well FACS reaction plate at 50 μl/well, and a chimeric antibody sample to be tested was added at 50 μl/well for incubation at 4° C. for 1 h. […] After the plate was centrifuged and washed 3 times with a PBS buffer, 100 μl of the resulting solution was assayed and analyzed by FACS (FACS Canto™, purchased from BD Biosciences). Data analysis was performed by software (FlowJo) to obtain the mean fluorescence intensity (MFI) of the cells. Then, analysis was performed by software (GraphPad Prism8), data were fitted, and EC₅₀ values were calculated.

[2] = biological target: T2, GPC3 endogenously expressed on HepG2 cells (UniProt P51654 25-554); assay: FACS on HepG2 cells;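 note: flow cytometric binding of chimeric antibodies to cells, read as mean fluorescence intensity, EC50 obtained by curve fitting of the MFI data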
T2 construct: whole, on cells
Experimental: as §1

[3] = biological target: T3, human GPC3-His protein (human, UniProt P51654 25-559); assay: ELISA, coated human GPC3, antibody 100 nM;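 note: antibodies bound to antigen-coated 96-well plates (1 µg/mL), 2 h at 37 °C, detected with HRP-labelled secondary antibody and TMB substrate, absorbance read at 450 nm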
T3 construct: Bought protein; also called human GPC3 protein; not shown: His tag

[4] = biological target: T3, human GPC3-His protein; assay: ELISA, coated human GPC3, antibody 10 nM;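 note: plate coated with antigen at 1 µg/mL, antibodies bound 2 h at 37 °C, detected via HRP-conjugated secondary antibody and TMB substrate, absorbance read after acid stop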
Experimental: (§2) The specific method is described as follows: The antigen protein was diluted with PBS to a final concentration of 1 μg/mL, and the diluent was added to a 96-well ELISA plate at 50 μL/well. The plate was sealed with a plastic film and incubated at 4° C. overnight, washed twice with PBS the next day, and a blocking solution [PBS+2% (w/w) BSA] was added for blocking at room temperature for 2 h. […] After incubation at 37° C. for 2 h, the plate was washed 3 times with PBS. A horseradish peroxidase (HRP)-labeled secondary antibody (purchased from Merck, Cat. No. AP113P) was added for incubation at 37° C. for 1 h, and the plate was washed 5 times with PBS. A TMB substrate was added at 50 μL/well for incubation at room temperature for 10 min, then a stop solution (1.0M HCl) was added at 50 μL/well. An ELISA plate reader (Multimode Plate Reader, EnSight, purchased from Perkin Elmer) was used to read OD_{450 nm} values, with results as shown in Table 4 to Table 6, FIG. 1A, FIG. 1B, and FIG. 1C.

[5] = biological target: T3, human GPC3-His protein; assay: ELISA, coated human GPC3, antibody 1 nM;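 note: antigen coated at 1 µg/mL on 96-well plates, antibody bound for 2 h at 37 °C, detected with HRP-labeled secondary antibody and TMB, absorbance read at 450 nm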
Experimental: as §2

[6] = biological target: T3, human GPC3-His protein; assay: ELISA, coated human GPC3, antibody 0.1 nM;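 note: antigen coated on 96-well plates at 1 µg/mL, antibody bound 2 h at 37 °C, detected with HRP-labeled secondary antibody and TMB substrate, acid-stopped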
[7] = biological target: T3, human GPC3-His protein; assay: ELISA, coated human GPC3, antibody 0.001 nM
[8] = biological target: T3, human GPC3-His protein; assay: ELISA, coated human GPC3, antibody 0.0001 nM
[9] = biological target: T3, human GPC3-His protein; assay: ELISA, coated human GPC3, antibody 0.01 nM;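 note: Plate-bound antigen coated at 1 µg/mL, antibody incubated 2 h at 37 °C, binding detected by HRP-conjugated secondary antibody with TMB substrate, read as absorbance at 450 nm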
Experimental: as §2

[10] = biological target: T4, human GPC3-His protein (human, UniProt P51654 25-559, limits assumed); assay: SPR, antibody captured on Protein A chip, human GPC3-His injected, 1:1 Langmuir model;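 note: flow cell at 25 °C, antigen injected for 240 s at five twofold dilutions starting at 200 nM, dissociation followed up to 600 s, double-referenced sensorgrams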
T4 construct: also called human GPC3 protein; not shown: His tag

[11] = biological target: T5, monkey GPC3 on HEK293T-monkey GPC3 cells (monkey); assay: FACS on HEK293T-monkey GPC3 cells
T5 construct: whole, on cells

Row | Binder | EC50 [1] [nM] | Max MFI [1] [MFI] | EC50 [2] [nM] | Max MFI [2] [MFI] | OD450 nm [3] [OD450] | OD450 nm [4] [OD450] | OD450 nm [5] [OD450] | OD450 nm [6] [OD450] | OD450 nm [7] [OD450] | OD450 nm [8] [OD450] | OD450 nm [9] [OD450] | Kd [10] [nM] | koff [10] [s⁻¹] | kon [10] [M⁻¹ s⁻¹] | EC50 [11] [nM] | Max MFI [11] [MFI]
1 | B1 | 0.4 | 9420 | 0.21 | 2090 | 2.56 | 2.31 | 2.02 | 1.22 | 0.13 | 0.1 | 0.3 |  |  |  |  | 
2 | B2 | 1.67 | 8280 | 2.13 | 1860 | 1.84 | 1.47 | 1.24 | 0.61 | 0.1 | 0.08 | 0.17 |  |  |  |  | 
3 | B3 | 1.36 | 9360 | 0.71 | 1650 | 2.35 | 2.02 | 1.5 | 0.8 | 0.11 | 0.08 | 0.21 |  |  |  |  | 
4 | B4 | 0.55 | 9930 | 0.2 | 1990 | 1.51 | 1.59 | 1.68 | 0.97 | 0.11 | 0.08 | 0.24 |  |  |  |  | 
5 | B5 | 0.66 | 8850 | 0.25 | 1880 | 1.46 | 1.74 | 1.33 | 0.86 | 0.11 | 0.09 | 0.23 |  |  |  |  | 
6 | B6 | 0.68 | 10700 | 0.36 | 2190 | 2 | 1.7 | 1.71 | 0.9 | 0.12 | 0.08 | 0.25 |  |  |  |  | 
7 | B7 |  |  |  |  |  |  |  |  |  |  |  | 9.28 | 0.00128 | 138000 | 1.83 | 31500
8 | B8 |  |  |  |  |  |  |  |  |  |  |  | 3.58 | 0.000315 | 88000 | 13.2 | 35800
9 | B9 |  |  |  |  |  |  |  |  |  |  |  | 8.4 | 0.00136 | 162000 | 1.78 | 32500
10 | B10 |  |  |  |  |  |  |  |  |  |  |  | 4.28 | 0.000397 | 92700 | 8.8 | 73600
11 | B11 |  |  |  |  |  |  |  |  |  |  |  | 1.05 | 0.000114 | 109000 | 4.1 | 36300
12 | B12 |  |  |  |  |  |  |  |  |  |  |  | 2.21 | 0.000228 | 103000 | 12.4 | 35400
13 | B13 |  |  |  |  |  |  |  |  |  |  |  | 3.15 | 0.001 | 319000 | 4.06 | 91600
14 | B14 | 0.76 | 10400 | 0.31 | 2120 | 0.45 | 1.07 | 0.72 | 0.66 | 0.12 | 0.09 | 0.19 |  |  |  |  | 
